Literature values as cited in patent US6406710B1, “Protein occlusion for delivery of small molecules” (priority 1998, dated 2002).

Settings: relatively high doses, human clinical trials

B1: BDNF: Brain Derived Neurotrophic Factor, a neurotrophin proposed as carrier protein (protein, UniProt P23560 19-247, looked up)
Neurotrophic factor BDNF …: APMKEANIRGQGGLAYPGVRTHGTLESVNGPKAGSRGLTSLADTFEHVIEELLDEDQKVRPNEENNKDADLYTSRVMLSSQVPLEPPLLFLLEEYKNYLDAANMSMRVRRHSDPARRGELSVCDSISEWVTAADKKTAVDMSGGTVTVLEKVPVSKGQLKQYFYETKCNPMGYTKEGCRGIDKRHWNSQCRTTQSYVRALTMDSKKRIGWRFIRIDTSCVCTLTIKRGR
  tolerability: well tolerated with insignificant adverse effects
